The values that follow come from patent publication US20260193293A1 (UNIVERSITY OF COPENHAGEN, published 2026).

Non-standard residues stand in square brackets, D forms with d. 2Nal = N[C@@H](Cc1ccc2ccccc2c1)C(=O)O

A word on the Ki: it is the equilibrium dissociation constant of an inhibitor or competing ligand from its target.

Assay [1] addresses T1, Sushi domains (SD1/2) protein of the GABAB1a (GB1a) subunit, recombinant.
T1 construct: domain: Sushi domains (SD1/2); also called SDs; sushi domain 1/2 (SD1/2) protein
Nature of the assay: FP competition.
Description: Fluorescence polarization (FP). FP assay was employed to determine the binding affinity of peptides in flat bottom black 384-well plates (Corning Life Science) using a Safire2 plate reader (Tecan). All experiments were conducted in 1×PBS (pH 7.4) containing 1% bovine serum albumin (BSA) at rt. The fluorescence polarization values were measured using excitation/emission wavelengths of 530/580 nm. […] For saturation assay, the millipolarization values were measured after mixing of probes with 12 serial 1 to 1 diluted concentrations of Sushi domains (SD1/2) protein. All experiments were performed in triplicate and the data were plotted to the one-site binding model using GraphPad Prism 9 to calculate the Kd of probes. […] The experiments were performed at least in triplicate and the data were fitted to the sigmoidal dose response curve using GraphPad Prism 9 to obtain the IC₅₀ of peptides. The Kᵢ values were calculated according to Nikolovska-Coleska et al³¹⁰.

Assay [2] deals with T2, native full-length GB1a subunit from mouse brain membrane fraction (mouse, UniProt Q9WV18 20-960).
T2 construct: Detected by immunoblot after pull-down from brain lysate; also called native GB1a; native SD
Kind of assay: pull-down from mouse brain lysate, immunoblot. For orientation: A western blot detects proteins with antibodies after separation by electrophoresis.
Description: Preparation of whole-brain lysates. Dissected adult mouse brains were placed in ice-cold homogenization buffer (320 mM sucrose, 4 mM HEPES, PH 7.5, 1 mM EDTA, 1 mM EGTA, supplemented with complete EDTA-free protease inhibitor mixture (Roche), 1 mL per 100 mg of brain) and homogenized with a glass-Teflon homogenizer (40 passes) on ice. […] The final brain lysates (at 2 mg/mL protein concentration) were directly used for immunoblot analysis (input lanes) or for pull-down experiments.
Pull-down experiments. […] For immunoblotting analysis, proteins were transferred to nitrocellulose membrane (0.2-μm pore size) (iBlot™ 2 Transfer Stacks, nitrocellulose, mini) using iBlot2 (invitrogen) and then probed with the primary antibodies mouse anti-SD clone 43N12 (1:250) or mouse monoclonal to GABAB1 subunit (abcam, 1:500) in combination with secondary peroxidase-coupled sheep anti-mouse IgG antibody (Cytiva, 1:5000).

T1 sequence (Q9Z0U4 29-158): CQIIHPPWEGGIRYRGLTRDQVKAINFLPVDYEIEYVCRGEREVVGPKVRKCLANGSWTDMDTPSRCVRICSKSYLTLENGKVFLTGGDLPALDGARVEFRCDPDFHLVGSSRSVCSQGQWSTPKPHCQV
T2 sequence (Q9WV18 20-960): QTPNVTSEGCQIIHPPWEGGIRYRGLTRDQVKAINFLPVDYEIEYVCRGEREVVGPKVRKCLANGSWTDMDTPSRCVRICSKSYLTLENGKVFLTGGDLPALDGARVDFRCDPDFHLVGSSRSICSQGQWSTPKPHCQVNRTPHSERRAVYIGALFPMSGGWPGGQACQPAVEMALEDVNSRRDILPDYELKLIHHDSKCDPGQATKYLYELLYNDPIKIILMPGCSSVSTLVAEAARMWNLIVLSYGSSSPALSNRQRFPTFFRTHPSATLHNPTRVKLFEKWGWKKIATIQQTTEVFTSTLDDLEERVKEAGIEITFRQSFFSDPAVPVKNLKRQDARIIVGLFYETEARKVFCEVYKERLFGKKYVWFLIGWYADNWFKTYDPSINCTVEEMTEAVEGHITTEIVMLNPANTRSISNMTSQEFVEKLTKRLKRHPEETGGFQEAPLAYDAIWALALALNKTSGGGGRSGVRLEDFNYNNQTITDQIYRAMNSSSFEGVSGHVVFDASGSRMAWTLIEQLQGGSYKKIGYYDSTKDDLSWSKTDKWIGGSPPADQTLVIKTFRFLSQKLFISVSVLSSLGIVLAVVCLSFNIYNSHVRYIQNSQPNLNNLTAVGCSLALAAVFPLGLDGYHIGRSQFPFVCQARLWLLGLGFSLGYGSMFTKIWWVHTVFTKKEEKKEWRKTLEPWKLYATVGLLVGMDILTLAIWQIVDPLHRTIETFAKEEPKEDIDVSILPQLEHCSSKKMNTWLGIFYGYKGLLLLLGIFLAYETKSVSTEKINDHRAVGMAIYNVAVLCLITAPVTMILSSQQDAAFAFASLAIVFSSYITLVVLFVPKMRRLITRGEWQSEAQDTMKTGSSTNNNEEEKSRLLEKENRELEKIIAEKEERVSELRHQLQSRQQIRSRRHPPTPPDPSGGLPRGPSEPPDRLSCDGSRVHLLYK

B1: Scr-20, scrambled version of peptide 20 ((2Nala)EDSDDYDDIDDDW) (peptide)
peptide: Ac-[2Nal]EDSDDYDDIDDDW-NH2
SMILES: CC[C@H](C)[C@H](NC(=O)[C@H](CC(=O)O)NC(=O)[C@H](CC(=O)O)NC(=O)[C@H](Cc1ccc(O)cc1)NC(=O)[C@H](CC(=O)O)NC(=O)[C@H](CC(=O)O)NC(=O)[C@H](CO)NC(=O)[C@H](CC(=O)O)NC(=O)[C@H](CCC(=O)O)NC(=O)[C@H](Cc1ccc2ccccc2c1)NC(C)=O)C(=O)N[C@@H](CC(=O)O)C(=O)N[C@@H](CC(=O)O)C(=O)N[C@@H](CC(=O)O)C(=O)N[C@@H](Cc1c[nH]c2ccccc12)C(N)=O
Turning to B1, the Ki in assay [1] turned out to be 31 µM. Moreover, the binding result in assay [2] is recorded as “no binding”.
